Reference: the nanobody polyreactivity screen of Harvey et al. (2022)

experiment: yeast display, Sf9 membrane polyspecificity reagent, FACS + sequencing; frameworks hold sequencing errors
In short: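 A nanobody's polyreactivity label depends on the gate it was sorted from. Yeast display cells were stained with 10% biotinylated, detergent-solubilized Sf9 membrane reagent for 1 hour at 4 °C, enriched on streptavidin microbeads and sorted by FACS. The low and high (top ~1%) gates were set on anti-HA fluorescence for expression and streptavidin fluorescence for reagent binding.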

Question: With “QVQLVETGGGLVQAGGSLGLSCDASGRIFDYYSMGWYRQATGKERELVASITRGGITYYADSVKGRFTISRDNAKNTVYLQMNSLKPEDTAVYYCADGLRWRRTYGYWGQGTQVTVSS” as the sequence, how does the “polyreactivity (PSR sort gate)” value read?
Answer: high polyreactivity

Question: With “QVQLVETGGGLVQAGGSLLLSCAASGNTFQYYAMGCYRQAPGKERELVAAITTGGSTNYADSVKGRFTISRDNAKNTVYLQMNSLKPEDTAVYYCAARGCVSKRISDYWGQGTQVTVSS” as the sequence, how does the “polyreactivity (PSR sort gate)” value read?
Answer: low polyreactivity

Question: For “QVQLVETGGGLVQAGGSLRLSCAASARTFVPYAMGWYRPAPGKERELVADITDGDVSTYADSVNGRFTISRDKAKNTVYLQMNSLKPDDNAVYYCAAQYRRLVTRWPVTFGYWGQGTQVTVSS”, which “polyreactivity (PSR sort gate)” value is on record?
Answer: low polyreactivity

Question: For “QVQLVETGGGLVQAGGSLRLSCAASGFIFSAYAMGWYRQAPGKEREFVAAISKRGGSTYYADSVKGRFTISRENAKNTVYLQMNTLKPDDTAVYYCAAPYSRYLVGYGYWGQGTQVTVSS”, which “polyreactivity (PSR sort gate)” value is on record?
Answer: high polyreactivity

Question: For “QVQLVETGGGLVQAGGSLRLSCAASGFIFSYNAMGWYRQAPGKERELVASISRADSTNYADSVKGRFTISRDNAKNTVYLQMNSLKPEDTAVYYCAKKGRTARRLYSFDYWGQGTQVTVSS”, which “polyreactivity (PSR sort gate)” value is on record?
Answer: low polyreactivity

Question: For “QVQLVETGGGLVQAGGSLRLSCAASGFIFYDYAMGWYRQSPGKERELVASISWSSGSTYYADSVKGRFTISRDNAKNTVYLQMNSLKPEDTAVYYCAADGYPLQLYNYWGQGTQVSVSS”, which “polyreactivity (PSR sort gate)” value is on record?
Answer: low polyreactivity

Question: Which “polyreactivity (PSR sort gate)” value does the source give for “QVQLVETGGGLVQAGGSLRLSCAASGFIVAEYAMGWYIQAPGKERELVAAITRSGGRTYYADSVKGRFTISRDNAKNTVYLQMNSLKPEDTAVYYCAAGLGYPRLYYWGQGTQVTVSS” here?
Answer: high polyreactivity

Question: For “QVQLVETGGGLVQAGGSLRLSCAASGFTCYRNAIGWYRQAPRKDREIVAAITSDGITYYADSVKGRFTMSRDNAKNTVYLQMNSLKPEDTAVYYCAADVQADLYSYEYDYWGQGTQVTVSS”, which “polyreactivity (PSR sort gate)” value is on record?
Answer: low polyreactivity

Question: With “QVQLVETGGGLVQAGGSLRLSCAASGFTFKFNTMGWYRQAPGKERELVAAISWRGGDTSYADSVKGRFTISRDNAKNTVYLQMNSLKPEDTAVYYCAASPRYPYWYDYWGQGTQVTVSS” as the sequence, how does the “polyreactivity (PSR sort gate)” value read?
Answer: low polyreactivity

Question: With “QVQLVETGGGLVQAGGSLRLSCAASGFTFSYYAMGWYRQAPGKERELVAAISWSGGSTYYADSVKGRFTISRDNAKNTVYLLMNSLKPEDTAVYYSNKVGRAIGPYDYWGQGTQVTVSS” as the sequence, how does the “polyreactivity (PSR sort gate)” value read?
Answer: high polyreactivity

Question: With “QVQLVETGGGLVQAGGSLRLSCAASGIFTYTMGWYRQAPRKERELVAAITNGSTYDADSVKGRFTISRDNAKNTVYLQMNSLKPEDTEVYYCAADRSSAYRWRSAGYYKYDYWGQGTHVTVSS” as the sequence, how does the “polyreactivity (PSR sort gate)” value read?
Answer: low polyreactivity

Question: Which “polyreactivity (PSR sort gate)” value does the source give for “QVQLVETGGGLVQAGGSLRLSCAASGIIFDVYAMGWYRPAPGKERELVAAISYGGGTTYYADSVKGRFTISRDNAKNTVYLQMNSLKPEDTAVYYCAADSYRSIGDDYWGQGTQVTVSS” here?
Answer: high polyreactivity

Question: For “QVQLVETGGGLVQAGGSLRLSCAASGIIIPWYTMGWYRQAPGKERELVAAISSGGRTNYADSVKGRFTISRDNAKNTVYLQMNSLIPEDTAVYYCAANYYRDRDWGQGTQVTVSS”, which “polyreactivity (PSR sort gate)” value is on record?
Answer: high polyreactivity

Question: With “QVQLVETGGGLVQAGGSLRLSCAASGITFASYAMGWYRHAPGKEREFVATITTGGTNTYYADSVKGRFTLSRDNAKKTVYLQMNSQKPEDTAVYYCAADSTPYVLSGNYDYWGQGTQVTVSS” as the sequence, how does the “polyreactivity (PSR sort gate)” value read?
Answer: low polyreactivity

Question: Which “polyreactivity (PSR sort gate)” value does the source give for “QVQLVETGGGLVQAGGSLRLSCAASGITFERYVMGWYRQAPGKERELVAVITKRGGNTYYADSVKGRFTISRDNAKNTVYLQMNSLKPEDTSVYYCATRSGRSTGDYWGQGTQVTVSS” here?
Answer: high polyreactivity

Question: For “QVQLVETGGGLVQAGGSLRLSCAASGITFVKYAMGWYRQAPGKERELVAAISGSGGSTSYADSVKGRFTISRDNAKNTVYLQMNSLKPEDTAVYYCNKAIVRYPKTRDYWGQGTQVTVSS”, which “polyreactivity (PSR sort gate)” value is on record?
Answer: low polyreactivity

Question: Which “polyreactivity (PSR sort gate)” value does the source give for “QVQLVETGGGLVQAGGSLRLSCAASGLTFYDYAMGWYRQAPGKERELVADIDFNGGSTSYADSVKGRFTISRDNAKNTVYLQMNSLKPEDTAVYDCNTRDRGDVVTGLDYWGQGTQVTVSS” here?
Answer: low polyreactivity

Question: For “QVQLVETGGGLVQAGGSLRLSCAASGNHFSTYTMGGYRQAPGKERELVAAISTSGTSTYYADSVKGRFTISRDNAKNTVYLQMNSLKPEDTAVYYCAASYLRSSQRMDYWGQGTQVTVSS”, which “polyreactivity (PSR sort gate)” value is on record?
Answer: low polyreactivity

Question: For “QVQLVETGGGLVQAGGSLRLSCAASGNTFAGNAMGWYRQAPGKERELVAAISRSGVTTRYADSVKGRFTISRDNATNTVYLQMNSLKPEDTAVYYCNADPRLRQNRDYWGQGTQVTVSS”, which “polyreactivity (PSR sort gate)” value is on record?
Answer: high polyreactivity

Question: For “QVQLVETGGGLVQAGGSLRLSCAASGPFYPYYAMGSYRQAPGKERELVATISTAGSTNYADSVKGRFTISRDNATNTVYLQMNSLIPEDTAVYYCATRNTWYHRGYDYWGQGTQVPVSS”, which “polyreactivity (PSR sort gate)” value is on record?
Answer: low polyreactivity

Question: Which “polyreactivity (PSR sort gate)” value does the source give for “QVQLVETGGGLVQAGGSLRLSCAASGRIFWRNDMGWYRQAPGKERELVAAISGSGGSTSYADSVKGRFTISRDNAKNTVYLQLNSLKPEDTAVYYFAADSESVGYEYWGQGTQVTVSS” here?
Answer: high polyreactivity

Question: For “QVQLVETGGGLVQAGGSLRLSCAASGRIFYGNAMGWYRHAPGKERELVAAITRSGSSTYYADSVKGRFTISRDNAKNTVYLLMNSLKPEDTAVSYCAVKYFDYVGQYAYYYWGQGTQVTVSS”, which “polyreactivity (PSR sort gate)” value is on record?
Answer: high polyreactivity

Question: With “QVQLVETGGGLVQAGGSLRLSCAASGRTFTKYAMGWYRQAPGKERELVAAISGNGGSTHYADSVKGRFTISRDNAKNTVYLQMNSLKPEDTAVYYCAADHRHKSNSWGQGTQVTVSS” as the sequence, how does the “polyreactivity (PSR sort gate)” value read?
Answer: low polyreactivity

Question: For “QVQLVETGGGLVQAGGSLRLSCAASGRTFVGNAKGWYRPAPGQERELVADITWSGDITYYADSVKGRFTISRDHAKNSVYLQMNSLKPEDTAVYYCAADYHRRRTDYDYWGQGTQVTVSS”, which “polyreactivity (PSR sort gate)” value is on record?
Answer: low polyreactivity

Question: With “QVQLVETGGGLVQAGGSLRLSCAASGRTLIGNAMGWYRQAPGKERELVAAISFRGTRTYYADSVKGRFTISRDNAKNTFYLQMNSLKPEDTAVYYCNVYTRDRGYDYWGQGTQVTVSS” as the sequence, how does the “polyreactivity (PSR sort gate)” value read?
Answer: high polyreactivity

Question: For “QVQLVETGGGLVQAGGSLRLSCAASGRTLTCYAMGWYRQAPGKERELVAAISWSGGSTYYADSVKGRFTISRDNAKNTVYLQMYSLIPEDTAVYYCAADRVRSYFSRYYSTPLDYYWGQGTQVTVSS”, which “polyreactivity (PSR sort gate)” value is on record?
Answer: high polyreactivity

Question: Which “polyreactivity (PSR sort gate)” value does the source give for “QVQLVETGGGLVQAGGSLRLSCAASGRTMPYYAMGWYRQAPGKERELVATISSRGGSTYYADSVKGRFTISRDNAKNTVYLQMNSLKPEDTAVYYCAARGNTPRTRRYGYWGQGTQVTVSS” here?
Answer: high polyreactivity

Question: For “QVQLVETGGGLVQAGGSLRLSCAASGRTYSTYAMGWYRQAPGKERDLVADISWRGAPTYYADSVKGRFTISRDNAKNTVYLQIISQKPEYTAVYYFAAAPYGYLRYEYWGLGTQVTVSS”, which “polyreactivity (PSR sort gate)” value is on record?
Answer: high polyreactivity

Question: Which “polyreactivity (PSR sort gate)” value does the source give for “QVQLVETGGGLVQAGGSLRLSCAASGSIFGDNAMGWYRQAPGKERELVAAIDQSGDSTYYADSVKGRFTISRDNAKNTVYLQMNSLKPEDTAVYYCAAQSYDYWYDYDYWGQGTQVTVSS” here?
Answer: high polyreactivity

Question: With “QVQLVETGGGLVQAGGSLRLSCAASGSIFIYFAMGWYRQAPGKERELVAAIDRSGGNTYYADSVKGRFTLSRDYAKNTVYLQMNSLKPEDTAVYYCAALVHRRVQYDYWGQGTQVTVSS” as the sequence, how does the “polyreactivity (PSR sort gate)” value read?
Answer: high polyreactivity

Question: Which “polyreactivity (PSR sort gate)” value does the source give for “QVQLVETGGGLVQAGGSLRLSCAASGSIFKNNAMGGYRQAPGKERELVAAIRSYGGSTYYADSVKGRFTISRDNAKNTVYLQMKSLKPEDTAVYYCAARYRSYPTYYQYNYWGQGTQVTVSS” here?
Answer: high polyreactivity

Question: For “QVQLVETGGGLVQAGGSLRLSCAASGSIFQGYAMGWYRQAPGKERELVAGITSSGGSTHYADSVKGRFTISRDNAKNTVYLQMNSLKPEDTAVYDYWGQGTQVTVSS”, which “polyreactivity (PSR sort gate)” value is on record?
Answer: low polyreactivity
